# T1: RNaseB (UniProt P61823 27-150)
# T1 construct: also called unrelated control protein RNaseB
# T1 sequence (looked up): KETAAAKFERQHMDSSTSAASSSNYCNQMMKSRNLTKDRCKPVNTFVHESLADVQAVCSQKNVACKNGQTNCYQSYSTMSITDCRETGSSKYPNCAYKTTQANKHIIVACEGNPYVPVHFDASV
# T2: extracellular domain of human CD154 (human, UniProt P29965 47-261)
# T2 construct: extracellular domain; Colony screening: conjugate with digoxigenin
# T2 sequence (looked up): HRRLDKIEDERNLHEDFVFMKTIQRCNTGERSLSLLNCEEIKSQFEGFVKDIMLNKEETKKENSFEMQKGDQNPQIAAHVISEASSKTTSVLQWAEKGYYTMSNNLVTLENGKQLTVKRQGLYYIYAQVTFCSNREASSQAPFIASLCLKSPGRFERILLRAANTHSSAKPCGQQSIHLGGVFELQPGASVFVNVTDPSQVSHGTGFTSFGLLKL
# B1: BBP mutein Fer-P4 (designed binder)
# chain: DVYHDGACPEVKPVDNFDWSQYHGKWWEVAKYPSKGGEKGKCGWAEYTPEGKSVKVSRYDVILSSEPFMEGTAYPVGDSKIGKIYHSRTKKGETKKTVFNVLSTDNKNYIIGYSCGYCECRKGHADHVWVLSRSMVLTGEAKTAVENYLIGSPVVDSQKLVYSDFSEAACKVNN
# notes: Tested as expressed from pBBP47: C-terminal T7 tag followed by Strep-tag II
# B2: BBP mutein CD154-13-10-1 (designed binder)
# chain: DVYHDGACPEVKPVDNFDWSQYHGKWWEVAKYPNQIEQGGKCGWAEYTPEGKSVKVSNYHVIYASEDFIEGTAYPVGDSKIGKIYHSLTSSGVTKENVFNVLSTDNKNYIIGYYCGYREAPKGHMDFVWVLSRSMVLTGEAKTAVENYLIGSPVVDSQKLVYSDFSEAACKVNN
# B3: BBP mutein CD154-13-10-4 (designed binder)
# chain: DVYHDGACPEVKPVDNFDWSQYHGKWWEVAKYPNSHETGGKCGWAEYTPEGKSVKVSNYHVITPHERFIEGTAYPVGDSKIGKIYHSLTWIGTTKENVFNVLSTDNKNYIIGYYCSYSEAGKGHQDFVWVLSRSMVLTGEAKTAVENYLIGSPVVDSQKLVYSDFSEAACKVNN
# B4: BBP mutein Fer-N21 (designed binder)
# chain: DVYHDGACPEVKPVDNFDWSQYHGKWWEVAKYPSNRGSKGKCGWAEYTPEGKSVKVSRYDVIPRLEAFMEGTAYPVGDSKIGKIYHSRTSKGKTKKTVFNVLSTDNKNYIIGYSCIYNERYKGHYDHVWVLSRSMVLTGEAKTAVENYLIGSPVVDSQKLVYSDFSEAACKVNN
# notes: as for B1
# B5: BBP mutein Fer-I21 (designed binder)
# chain: DVYHDGACPEVKPVDNFDWSQYHGKWWEVAKYPNQKEKWGKCGWAEYTPEGKSVKVSNYHVIKRPERFIEGTAYPVGDSKIGKIYHSLTRLGKTKENVFNVLSTDNKNYIIGYYCLYPEGWKGHKDFVWVLSRSMVLTGEAKTAVENYLIGSPVVDSQKLVYSDFSEAACKVNN
# notes: as for B1
# B6: BBP mutein Fer-N22 (designed binder)
# chain: DVYHDGACPEVKPVDNFDWSQYHGKWWEVAKYPNGGESPGKCGWAEYTPEGKSVKVSNYHVIKKRERFIEGTAYPVGDSKIGKICHSLTWSGLTKENVFNVLSTDNKNYIIGYYCKYKERKKGHGDFVWVLSRSMVLTGEAKTAVENYLIGSPVVDSQKLVYSDFSEAACKVNN
# notes: as for B1
# B7: BBP mutein Fer-D24 (designed binder)
# chain: DVYHDGACPEVKPVDNFDWSQYHGKWWEVAKYPSKKGKQGKCGWAEYTPEGKSVKVSRYDVIPCLESFMEGTAYPVGDSKIGKIYHSRTKPGRTKKTVFNVPSTDNKNYIIGYSCVYPEGRKGHRDHVWVLSRSMVLTGEAKTAVENYLIGSPVVDSQKLVYSDFSEAACKVNN
# notes: Tested only in the screening ELISA (crude extract, pBBP47: C-terminal T7 tag and Strep-tag II); KD not given
# B8: BBP mutein Fer-O20 (designed binder)
# chain: DVYHDGACPEVKPVDNFDWSQYHGKWWEVAKCPSGKGRAGKCGWAEFTPEGKSVKVSRYDVIPAPELFMEGTAYPVGDPKIGKIYHSRTNKGLTKKTVFNVLSTDNKNYIIGYSCKYGEDQKGHKDHVWVLSRSMVLTGEAKTAVENYLIGSPVVDSQKLVYSDFSEAACKVNN
# notes: as for B1
# Key:
# [1] = molecular target: T3, type I horse ferritin (horse, UniProt P02791 2-175; Q8MIP0 2-182, limits assumed); experiment: ELISA, ferritin coated on plate, mutein titrated from 1000 nM, anti-T7-HRP detection, apparent KD from curve fit
# T3 construct: the natural protein is a shell of light and heavy chains
# T3 sequence (P02791 2-175 limits assumed, chain 1 of 2): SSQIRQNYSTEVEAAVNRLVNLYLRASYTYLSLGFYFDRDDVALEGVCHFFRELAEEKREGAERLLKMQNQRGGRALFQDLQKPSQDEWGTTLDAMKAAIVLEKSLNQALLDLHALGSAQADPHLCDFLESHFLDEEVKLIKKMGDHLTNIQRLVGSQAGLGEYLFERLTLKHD
# T3 sequence (Q8MIP0 2-182 limits assumed, chain 2 of 2): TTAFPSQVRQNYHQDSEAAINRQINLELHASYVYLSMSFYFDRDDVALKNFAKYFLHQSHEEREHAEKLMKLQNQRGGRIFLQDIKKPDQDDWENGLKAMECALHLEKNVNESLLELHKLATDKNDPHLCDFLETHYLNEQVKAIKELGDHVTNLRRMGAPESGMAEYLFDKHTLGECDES
# Procedure: (§1) Afterwards, the wells were washed and blocked as described in Example 8.
# (§2) Then, a dilution series of the BBP muteins from Example 11 in SA-buffer was prepared in PBST starting from 1000 nM concentration and incubated for 1 h at room temperature. Subsequently, plates were washed again five times, anti-T7 monoclonal antibody-HRP-conjugate was added and incubated for 1 hour at room temperature followed by washing and addition of fluorogenic HRP-substrate QuantaBlu™ as described in Example 8. After 10 minutes at room temperature fluorescence was excited at a wavelength of 320 nm (±12.5 nm) and measured at 430 nm (±17.5 nm) in a GENiosPlus plate reader.
# The resulting binding curves were fitted by non-linear least squares regression as described in Example 8 and are depicted in FIG. 8. The values obtained for the apparent dissociation constants of the complexes between the BBP muteins and the prescribed target ferritin are summarized in Table 5.
# [2] = molecular target: T1, RNaseB; experiment: ELISA: RNaseB coated on the plate as control, BBP mutein titrated 0-1000 nM, detected with anti-T7 antibody-HRP, fluorescence (Example 12)
# Procedure: as §1, §2
# [3] = molecular target: T3, type I horse ferritin; experiment: high-throughput ELISA screening, crude cell extract, ferritin or aldolase coated on plate, anti-T7-HRP detection; Fer-P4 is one of the clones taken on from these 14
# Procedure: (§3) For the detection of binding, these cell extracts were tested for their reactivity on the prescribed target type I horse ferri tin as well as the unrelated control protein aldolase in ELISA experiments. Therefore, wells of black Fluotrac 600 ELISA plates (Greiner; 384 well) were coated overnight with 20 μl of a solution of ferritin (Sigma) or aldolase (Roche) at 4° C., each at a concentration of 20 μg/ml in PBS. Plates were washed five times with 100 μl PBST/0.05 per well with an automated ELISA plate washer (Molecular Devices) leaving a residual volume of 10 μl of the washing buffer in each well after the last washing step. Residual binding sites were blocked by incubation with 100 μl PBST/0.05 containing 2% w/v BSA for 2 h at room temperature. Afterwards, plates were again washed five times as described above.
# (§4) For complex formation between the BBP muteins and the immobilized proteins, the wells were incubated with 10 μl of the blocked cell extract from above for 1 hour at room temperature. […] After 60 minutes at room temperature fluorescence was excited at a wavelength of 320 nm (±12.5 nm) and measured at 430 nm (±17.5 nm) in a GENiosPlus plate reader (Tecan).
# [4] = molecular target: T2, extracellular domain of human CD154; experiment: ELISA, CD154 coated on plate, mutein titrated from 2000 nM, anti-Strep-tag II-HRP detection, apparent KD from curve fit
# Procedure: After washing five times with 100 μl PBST/0.05 per well employing an automated ELISA plate washer, the wells were filled with 100 μl PBST containing 3% w/v non-fat dry milk powder (Vitalia), in order to saturate unspecific binding sites and incubated for one hour at room temperature. After blocking, the microtiter plate was washed two times with 100 μl PBST/0.05 as described above.
# Then a dilution series of the muteins from Example 16 in SA-buffer was prepared in PBST starting from 2000 nM concentration and incubated for 1 h at room temperature. Subsequently, plates were washed again five times like above and 20 μl of an anti-Strep-tag® II monoclonal antibody-HRP-conjugate (IBA), diluted 1:1000 in PBST was added to each well and incubated for 1 hour at room temperature. Plates were again washed five times as described above and 20 μl of the fluorogenic HRP-substrate QuantaBlu™ (diluted as described by the manufacturer) was added to detect bound BBP muteins by means of the attached anti-Strep-tag® II monoclonal antibody-HRP-conjugate. After 10 minutes at room temperature fluorescence was excited at a wavelength of 320 nm (±12.5 nm) and measured at 430 nm (±17.5 nm) in a GENiosPlus plate reader.
# The resulting binding curves were fitted by non-linear least squares regression as described in Example 8 and are depicted in FIG. 11. […]
# [5] = molecular target: T4, BSA (UniProt P02769 25-607); experiment: ELISA: BSA coated on the plate as control, BBP mutein titrated 0-2000 nM, detected with anti-Strep-tag II antibody-HRP, fluorescence (Example 17)
# T4 construct: Control protein coated on the ELISA plate; also called unrelated control protein BSA
# T4 sequence (P02769 25-607 limits assumed): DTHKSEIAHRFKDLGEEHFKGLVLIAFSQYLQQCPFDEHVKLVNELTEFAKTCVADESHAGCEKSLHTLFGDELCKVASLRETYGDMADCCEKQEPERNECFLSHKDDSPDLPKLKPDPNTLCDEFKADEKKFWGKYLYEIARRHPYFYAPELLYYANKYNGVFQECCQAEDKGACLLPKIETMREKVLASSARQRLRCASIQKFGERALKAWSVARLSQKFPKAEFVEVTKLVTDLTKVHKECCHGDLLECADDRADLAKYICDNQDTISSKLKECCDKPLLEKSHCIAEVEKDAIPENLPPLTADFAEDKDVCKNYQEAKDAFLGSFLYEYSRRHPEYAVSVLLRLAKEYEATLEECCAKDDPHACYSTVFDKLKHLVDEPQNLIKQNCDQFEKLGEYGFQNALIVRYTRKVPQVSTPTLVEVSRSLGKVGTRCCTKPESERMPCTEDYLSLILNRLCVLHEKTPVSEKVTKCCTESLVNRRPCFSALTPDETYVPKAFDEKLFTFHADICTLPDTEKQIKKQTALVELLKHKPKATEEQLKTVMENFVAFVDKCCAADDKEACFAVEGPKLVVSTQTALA
# [6] = molecular target: T1, RNaseB; experiment: ELISA, RNaseB coated on plate, anti-T7-HRP detection
# Procedure: as §1, §2
# [7] = molecular target: T3, type I horse ferritin; experiment: high-throughput ELISA screening, crude cell extract, ferritin or aldolase coated on plate, anti-T7-HRP detection; Fer-N21 is one of the clones taken on from these 14
# Procedure: as §3, §4
# [8] = molecular target: T3, type I horse ferritin; experiment: high-throughput ELISA screening, crude cell extract, ferritin or aldolase coated on plate, anti-T7-HRP detection; Fer-I21 is one of the clones taken on from these 14
# Procedure: as §3, §4
# [9] = molecular target: T3, type I horse ferritin; experiment: high-throughput ELISA screening, crude cell extract, ferritin or aldolase coated on plate, anti-T7-HRP detection; Fer-N22 is one of the clones taken on from these 14
# Procedure: as §3, §4
# [10] = molecular target: T3, type I horse ferritin; experiment: high-throughput ELISA screening, crude cell extract, ferritin or aldolase coated on plate, anti-T7-HRP detection; Fer-D24 is one of the clones taken on from these 14
# Procedure: as §3, §4
# [11] = molecular target: T3, type I horse ferritin; experiment: high-throughput ELISA screening, crude cell extract, ferritin or aldolase coated on plate, anti-T7-HRP detection; Fer-O20 is one of the clones taken on from these 14
# Procedure: as §3, §4
binder,measurement,setting,value
B1,Kd,[1],31 nM
same,binding result,[2],no binding (tested: 1000 nM)
same,signal-to-control ratio (ferritin against aldolase),[3],> 5
B2,Kd,[4],89 nM
same,binding result,[5],no binding (tested: 2000 nM)
B3,Kd,[4],174 nM
same,binding result,[5],no binding (tested: 2000 nM)
B4,binding result,[6],no binding (tested: dilution series starting from 1000 nM)
same,Kd,[1],29 nM
same,signal-to-control ratio (ferritin against aldolase),[7],> 5
B5,binding result,[6],no binding (tested: dilution series starting from 1000 nM)
same,Kd,[1],26 nM
same,signal-to-control ratio (ferritin against aldolase),[8],> 5
B6,binding result,[6],no binding (tested: dilution series starting from 1000 nM)
same,Kd,[1],45 nM
same,signal-to-control ratio (ferritin against aldolase),[9],> 5
B7,signal-to-control ratio (ferritin against aldolase),[10],> 5
B8,binding result,[6],no binding (tested: dilution series starting from 1000 nM)
same,Kd,[1],49 nM
same,signal-to-control ratio (ferritin against aldolase),[11],> 5
